Reference: publication PMC12657314, “Structural modeling and biochemical characterization of MSMEG_0748, a MoxR ATPase from Mycobacterium smegmatis” (Computational and Structural Biotechnology Journal, 2025)

B1: MSMEG_0748 (Mycolicibacterium smegmatis MC2 155) (protein)
chain: MRMAAEPGAAVTGFGGVDDVVRRFDAHDYLLDEGTATAIYLAVSLGRPLLLEGEPGVGKTTAAKTLAAVLGTPLIRLQCYEGLTASEALYDWNYQRQLLSIRLAEARGGEHLDEAALYTESYLVDRPILQCVRHRGPSSPVLLVDEIDRADDEFEALLLEFLGEAAVTVPELGTFVAERPPVVVLTSNRSRDLHDALRRRCLYHWIEYPQRAQAVAIVRRTVPGATDALIDSAVQFVSAARELDLDKPPGVAETIDWVAALVALRVGDLVDPAALGTLGALAKTPDDSGLMRDALLDLTN
notes: full length, N-terminal His-tag cut off by rTEV protease, expressed in E. coli BL21(DE3)
B2: MSMEG_0748 (Mycolicibacterium smegmatis MC2 155; E146Q) (protein)
chain: MRMAAEPGAAVTGFGGVDDVVRRFDAHDYLLDEGTATAIYLAVSLGRPLLLEGEPGVGKTTAAKTLAAVLGTPLIRLQCYEGLTASEALYDWNYQRQLLSIRLAEARGGEHLDEAALYTESYLVDRPILQCVRHRGPSSPVLLVDQIDRADDEFEALLLEFLGEAAVTVPELGTFVAERPPVVVLTSNRSRDLHDALRRRCLYHWIEYPQRAQAVAIVRRTVPGATDALIDSAVQFVSAARELDLDKPPGVAETIDWVAALVALRVGDLVDPAALGTLGALAKTPDDSGLMRDALLDLTN
notes: as for B1
B3: MSMEG_0748 (MoxR-type AAA+ ATPase from Mycobacterium smegmatis mc2 155), recombinant, tag-cleaved (enzyme, UniProt A0QQG6 1-300, looked up)
chain: MRMAAEPGAAVTGFGGVDDVVRRFDAHDYLLDEGTATAIYLAVSLGRPLLLEGEPGVGKTTAAKTLAAVLGTPLIRLQCYEGLTASEALYDWNYQRQLLSIRLAEARGGEHLDEAALYTESYLVDRPILQCVRHRGPSSPVLLVDEIDRADDEFEALLLEFLGEAAVTVPELGTFVAERPPVVVLTSNRSRDLHDALRRRCLYHWIEYPQRAQAVAIVRRTVPGATDALIDSAVQFVSAARELDLDKPPGVAETIDWVAALVALRVGDLVDPAALGTLGALAKTPDDSGLMRDALLDLTN
notes: MSMEG_0748, MoxR-type AAA+ ATPase, Mycobacterium smegmatis mc2 155, UniProt A0QQG6; amplified from genomic DNA into pProEX-HTa; full-length protein of about 32.7 kDa after removal of the His tag by rTEV protease; also called wild-type MSMEG_0748; MoxR ATPase; source: E. coli BL21(DE3), purified (Ni-NTA, TEV cleavage, second Ni-NTA, SEC on Superdex 200); not shown: His-tag, N-terminal, cleaved

Key:
purified protein = substrate: Nc1ncnc2c1ncn2[C@@H]1O[C@H](COP(=O)(O)OP(=O)(O)OP(=O)(O)O)[C@@H](O)[C@H]1O; experiment: purified protein; assay type: biochemical, Mycolicibacterium smegmatis; conditions: 50 mM Tris-HCl pH 8.0, 150 mM KCl, 2 mM MgCl2, 2 mM DTT, 30 °C, 200 nM protein
[1] = biological target: the molecule itself; experiment: SEC-MALS; Superdex 200 Increase 10/300 GL, 5 mg/mL protein injected, 20 mM Tris-HCl pH 7.5, 300 mM NaCl, 0.5 mM TCEP, flow 0.5 mL/min; DAWN Heleos II detector

| Protein | Km (purified protein) | kcat (purified protein) | stoichiometry N [1] |
| --- | --- | --- | --- |
| B1 | 0.6951 µM | 0.0251 S^−1 |  |
| B2 | 0.9024 µM | 0.0189 S^−1 |  |
| B3 |  |  | 6 |
